PMC12005789, “Geniposidic Acid Targeting FXR “S332 and H447” Mediated Conformational Change to Upregulate CYPs and miR‐19a‐3p to Ameliorate Drug‐Induced Liver Injury” (Advanced Science, 2025)
Ends that are not written are not given here.

T1: Farnesoid X receptor (FXR) (Homo sapiens, UniProt Q96RI1)
T1 construct: gene NR1H4; human FXR LBD (residues 248–486), N-terminal 8×His-Tag
T1 sequence (Q96RI1 248-486): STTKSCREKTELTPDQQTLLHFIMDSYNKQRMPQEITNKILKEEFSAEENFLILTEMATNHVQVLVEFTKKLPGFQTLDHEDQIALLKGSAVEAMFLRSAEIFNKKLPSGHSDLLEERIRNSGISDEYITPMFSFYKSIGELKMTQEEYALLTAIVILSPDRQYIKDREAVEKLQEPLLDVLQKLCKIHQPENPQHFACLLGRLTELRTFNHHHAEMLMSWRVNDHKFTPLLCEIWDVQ

T2: human FXR LBD wild-type recombinant protein (human)
T2 chain: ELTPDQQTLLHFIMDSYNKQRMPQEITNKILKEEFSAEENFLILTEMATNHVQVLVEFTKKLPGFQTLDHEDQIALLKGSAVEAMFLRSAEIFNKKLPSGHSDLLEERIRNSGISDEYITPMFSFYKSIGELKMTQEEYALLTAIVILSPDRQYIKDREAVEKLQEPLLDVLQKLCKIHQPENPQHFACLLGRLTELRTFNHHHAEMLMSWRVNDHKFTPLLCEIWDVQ

T3: human FXR LBD H447A recombinant protein (human)
T3 chain: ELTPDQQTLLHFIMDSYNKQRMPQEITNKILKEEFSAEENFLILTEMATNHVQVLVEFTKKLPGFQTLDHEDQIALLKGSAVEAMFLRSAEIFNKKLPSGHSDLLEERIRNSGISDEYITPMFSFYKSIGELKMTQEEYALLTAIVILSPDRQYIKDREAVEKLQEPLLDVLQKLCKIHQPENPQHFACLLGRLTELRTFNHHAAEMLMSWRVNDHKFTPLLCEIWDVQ


Assays:
[1] = target: T1, Farnesoid X receptor (FXR); assay: SPR (Biacore T200, CM5 chip with FXR LBD WT); supported by DSF, CETSA and AlphaScreen; format: binding
[2] = target: T2, human FXR LBD wild-type recombinant …; assay: SPR; with GW4064
[3] = target: T3, human FXR LBD H447A recombinant protein; assay: SPR; with GPA
[4] = target: T2, human FXR LBD wild-type recombinant …; assay: SPR; with GPA

Kd [1]	Kd [2]	Kd [3]	Kd [4]	Molecule
0.391 µM	–	–	–	O=C(O)C1=CO[C@@H](O[C@@H]2O[C@H](CO)[C@@H](O)[C@H](O)[C@H]2O)[C@@H]2C(CO)=CC[C@H]12 [GPA, Geniposidic acid]
–	0.185 µM	355 µM	0.533 µM	QEPVSPKKKENALLRYLLDKDDTKD (also: biotinylated (position not given here)) [SRC2-3 biotinylated cofactor peptide]
